Consider eleven molecules from US20260193348A1 (ANTENGENE BIOLOGICS, published 2026).

Test [1] deals with T1, GPRC5D on multiple myeloma cells (human, UniProt Q9NZD1 1-345).
T1 construct: whole, on cells; Endogenous GPRC5D on multiple myeloma cell lines; also called G-protein coupled receptor family C group 5 member D; MM.1S, MOLP-8, L363, RPMI8226 cells
In words: FACS on MM.1S cells.

The target in test [2] is T2, CD3 on T cells / Jurkat cells (human, UniProt P07766 23-207; P04234 22-171; P09693 23-182).
T2 construct: whole, on cells; Native CD3 complex on CD3+ T cells isolated from normal donors or on Jurkat cells; also called human CD3; CD3+ T cells
T2 sequence (P07766 23-207, chain 1 of 3): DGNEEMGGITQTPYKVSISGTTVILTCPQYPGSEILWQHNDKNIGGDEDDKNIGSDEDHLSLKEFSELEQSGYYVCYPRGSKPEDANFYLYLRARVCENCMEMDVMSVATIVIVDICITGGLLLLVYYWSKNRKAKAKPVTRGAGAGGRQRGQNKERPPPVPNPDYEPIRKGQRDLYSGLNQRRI
T2 sequence (P04234 22-171, chain 2 of 3): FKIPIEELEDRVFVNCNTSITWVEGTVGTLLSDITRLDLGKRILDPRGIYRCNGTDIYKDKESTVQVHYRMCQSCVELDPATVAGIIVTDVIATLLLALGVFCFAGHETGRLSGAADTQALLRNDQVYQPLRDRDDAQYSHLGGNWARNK
T2 sequence (P09693 23-182, chain 3 of 3): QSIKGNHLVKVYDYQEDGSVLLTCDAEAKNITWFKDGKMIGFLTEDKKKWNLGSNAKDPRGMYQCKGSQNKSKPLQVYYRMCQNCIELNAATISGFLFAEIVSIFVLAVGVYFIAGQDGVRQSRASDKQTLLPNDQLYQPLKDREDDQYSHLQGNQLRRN
In words: FACS on Jurkat cells.

T1 sequence (Q9NZD1 whole entry): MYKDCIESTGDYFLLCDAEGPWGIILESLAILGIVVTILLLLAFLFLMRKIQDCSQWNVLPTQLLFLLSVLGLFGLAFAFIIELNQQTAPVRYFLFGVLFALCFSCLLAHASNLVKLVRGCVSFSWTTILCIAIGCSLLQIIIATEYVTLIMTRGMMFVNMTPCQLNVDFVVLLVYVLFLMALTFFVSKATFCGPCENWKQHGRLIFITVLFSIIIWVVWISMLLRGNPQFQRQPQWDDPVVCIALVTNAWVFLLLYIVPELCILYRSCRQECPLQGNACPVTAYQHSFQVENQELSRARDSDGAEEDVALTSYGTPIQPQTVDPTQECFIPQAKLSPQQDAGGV

B1: Bis-40E9-L2H6 (bispecific antibody)
VH: EVQLVQSGAEVKKPGASVKVSCKASGYTFTSYVIHWVRQAPGQGLEWMGYFNPYNDGTKYNEEFKGRVTLTSDKSTSTAYMELRSLRSDDTAVYYCARGGVRRYFDVWGQGTTVTVSS
VL: DIQMTQSPSSLSASVGDRVTITCRASQDIGSNLNWLQQKPGKAIKRLIYATFGLDSGVPSRFSGSRSGTDFTLTISSLQPEDFATYYCQQYASFPYTFGGGTKVEIK
scFv: EVQLVQSGAEVKKPGSSVKVSCKASGYTFSSYVIHWVRQAPGQCLEWMGYINPYNDVIKYNEKFKGRVTLTSDKSTSTAYMELSSLRSEDTAVYYCARESFSSYDGFAYWGQGTLVTVSSGGGGSGGGGSGGGGSGGGGSEIVLTQSPDFQSVTPKEKVTITCSASSSVSYMHWYQQKPDQSPKRLIYDTSKLASGVPSRFSGSGSGTDFTLTINSLEAEDAATYYCQQWSSNPPTFGCGTKVEIK
notes: L234A/L235A
With B1, the binding result in test [1] and in test [2] was “binds” throughout.

B2: Bis-108+ch147 (bispecific antibody, V domains shown)
VH 1: EVQLVQSGAEVKKPGASVKVSCKASGYTFTSYVIHWVRQAPGQGLEWMGYFNPYNDGTKYNEEFKGRVTLTSDKSTSTAYMELRSLRSDDTAVYYCARGGVRRYFDVWGQGTTVTVSS
VL 1: DIQMTQSPSSLSASVGDRVTITCRASQDIGSNLNWLQQKPGKAIKRLIYATFGLDSGVPSRFSGSRSGTDFTLTISSLQPEDFATYYCQQYASFPYTFGGGTKVEIK
VH 2: QVQLQQPGTELVKPGTSVKLSCKASGYTFTSYWMHWVKQRPGQCLEWIGNINPSNGATNYNEKFKSKATLTVDKSSSTAYMQLSSLTSEDSAVYYCARDRSSQYYFDYWGQGTTLTVSS
VL 2: DIVMSQSPSSLAVSAGEKVTMSCKSSQSLLNSRSRKNYLAWYQQKPGQSPKLLIYWASTRESGVPDRFTGSGSGTDFTLTISSVQAEDLAVYYCTQSYTLRTFGCGTKLEIK
notes: Fab-scFv-Fab (2+1): two humanized anti-GPRC5D Fabs (first VH/VL) and one anti-CD3 scFv (second VH/VL, parental clone 147E11E2)
Consider B2, for which the binding result in test [1] and in test [2] was “binds” in each case.

B3: Bis-108+147-S32T.L (bispecific antibody, V domains shown)
VH 1: EVQLVQSGAEVKKPGASVKVSCKASGYTFTSYVIHWVRQAPGQGLEWMGYFNPYNDGTKYNEEFKGRVTLTSDKSTSTAYMELRSLRSDDTAVYYCARGGVRRYFDVWGQGTTVTVSS
VL 1: DIQMTQSPSSLSASVGDRVTITCRASQDIGSNLNWLQQKPGKAIKRLIYATFGLDSGVPSRFSGSRSGTDFTLTISSLQPEDFATYYCQQYASFPYTFGGGTKVEIK
VH 2: EVQLVQSGAEVKKPGSSVKVSCKASGYTFTSYWMHWVRQAPGQCLEWMGNINPSSGATNYNEKFKSRVTLTVDKSTSTAYMELSSLRSEDTAVYYCARDRSSQYYFDYWGQGTTVTVSS
VL 2: DIVMTQSPDSLAVSLGERATINCKSSQSLLNTRSRKNYLAWYQQKPGQPPKLLIYWASTRESGVPDRFSGSGSGTDFTLTISSLQAEDVAVYYCTQSYTLRTFGCGTKVEIK
notes: Fab-scFv-Fab (2+1): first VH/VL = anti-GPRC5D Fabs, second VH/VL = anti-CD3 scFv
Turning to B3, the binding result in test [1] and in test [2] was “binds” each time.

B4: Bis-108+147-R33A.L (bispecific antibody, V domains shown)
VH 1: EVQLVQSGAEVKKPGASVKVSCKASGYTFTSYVIHWVRQAPGQGLEWMGYFNPYNDGTKYNEEFKGRVTLTSDKSTSTAYMELRSLRSDDTAVYYCARGGVRRYFDVWGQGTTVTVSS
VL 1: DIQMTQSPSSLSASVGDRVTITCRASQDIGSNLNWLQQKPGKAIKRLIYATFGLDSGVPSRFSGSRSGTDFTLTISSLQPEDFATYYCQQYASFPYTFGGGTKVEIK
VH 2: EVQLVQSGAEVKKPGSSVKVSCKASGYTFTSYWMHWVRQAPGQCLEWMGNINPSSGATNYNEKFKSRVTLTVDKSTSTAYMELSSLRSEDTAVYYCARDRSSQYYFDYWGQGTTVTVSS
VL 2: DIVMTQSPDSLAVSLGERATINCKSSQSLLNSASRKNYLAWYQQKPGQPPKLLIYWASTRESGVPDRFSGSGSGTDFTLTISSLQAEDVAVYYCTQSYTLRTFGCGTKVEIK
notes: as for B3
B4: the binding result in test [1] and in test [2] was “binds” each time.

B5: Bis-40E9-L2H14 (bispecific antibody)
VH: EVQLVQSGAEVKKPGASVKVSCKASGYTFTSYVIHWVRQAPGQGLEWMGYFNPYNDGTKYNEEFKGRVTLTSDKSTSTAYMELRSLRSDDTAVYYCARGGVRRYFDVWGQGTTVTVSS
VL: DIQMTQSPSSLSASVGDRVTITCRASQDIGSNLNWLQQKPGKAIKRLIYATFGLDSGVPSRFSGSRSGTDFTLTISSLQPEDFATYYCQQYASFPYTFGGGTKVEIK
scFv: EVQLVQSGAEVKKPGSSVKVSCKASGYTFSSYVIHWVRQAPGQCLEWMGYINPYNDVIKYNEKFKGRVTLTSDKSTSTAYMELSSLRSEDTAVYYCARESYYSYDGFAYWGQGTLVTVSSGGGGSGGGGSGGGGSGGGGSEIVLTQSPDFQSVTPKEKVTITCSASSSVSYMHWYQQKPDQSPKRLIYDTSKLASGVPSRFSGSGSGTDFTLTINSLEAEDAATYYCQQWSSNPPTFGCGTKVEIK
notes: L234A/L235A
Consider B5, for which the binding result in test [1] and in test [2] was “binds” in each case.

B6: Bis-108+147-K36R.L (bispecific antibody, V domains shown)
VH 1: EVQLVQSGAEVKKPGASVKVSCKASGYTFTSYVIHWVRQAPGQGLEWMGYFNPYNDGTKYNEEFKGRVTLTSDKSTSTAYMELRSLRSDDTAVYYCARGGVRRYFDVWGQGTTVTVSS
VL 1: DIQMTQSPSSLSASVGDRVTITCRASQDIGSNLNWLQQKPGKAIKRLIYATFGLDSGVPSRFSGSRSGTDFTLTISSLQPEDFATYYCQQYASFPYTFGGGTKVEIK
VH 2: EVQLVQSGAEVKKPGSSVKVSCKASGYTFTSYWMHWVRQAPGQCLEWMGNINPSSGATNYNEKFKSRVTLTVDKSTSTAYMELSSLRSEDTAVYYCARDRSSQYYFDYWGQGTTVTVSS
VL 2: DIVMTQSPDSLAVSLGERATINCKSSQSLLNSRSRRNYLAWYQQKPGQPPKLLIYWASTRESGVPDRFSGSGSGTDFTLTISSLQAEDVAVYYCTQSYTLRTFGCGTKVEIK
notes: as for B3
Consider B6, for which the binding result in test [1] and in test [2] was “binds” in each case.

B7: Bis-40E9-L2H7 (bispecific antibody)
VH: EVQLVQSGAEVKKPGASVKVSCKASGYTFTSYVIHWVRQAPGQGLEWMGYFNPYNDGTKYNEEFKGRVTLTSDKSTSTAYMELRSLRSDDTAVYYCARGGVRRYFDVWGQGTTVTVSS
VL: DIQMTQSPSSLSASVGDRVTITCRASQDIGSNLNWLQQKPGKAIKRLIYATFGLDSGVPSRFSGSRSGTDFTLTISSLQPEDFATYYCQQYASFPYTFGGGTKVEIK
scFv: EVQLVQSGAEVKKPGSSVKVSCKASGYTFSSYVIHWVRQAPGQCLEWMGYINPGNGVIKYNEKFKGRVTLTSDKSTSTAYMELSSLRSEDTAVYYCARDSYSSYDGFAYWGQGTLVTVSSGGGGSGGGGSGGGGSGGGGSEIVLTQSPDFQSVTPKEKVTITCSASSSVSYMHWYQQKPDQSPKRLIYDTSKLASGVPSRFSGSGSGTDFTLTINSLEAEDAATYYCQQWSSNPPTFGCGTKVEIK
notes: L234A/L235A
B7: the binding result in test [1] and in test [2] was “binds” each time.

B8: Bis-108+147-R35K.L (bispecific antibody, V domains shown)
VH 1: EVQLVQSGAEVKKPGASVKVSCKASGYTFTSYVIHWVRQAPGQGLEWMGYFNPYNDGTKYNEEFKGRVTLTSDKSTSTAYMELRSLRSDDTAVYYCARGGVRRYFDVWGQGTTVTVSS
VL 1: DIQMTQSPSSLSASVGDRVTITCRASQDIGSNLNWLQQKPGKAIKRLIYATFGLDSGVPSRFSGSRSGTDFTLTISSLQPEDFATYYCQQYASFPYTFGGGTKVEIK
VH 2: EVQLVQSGAEVKKPGSSVKVSCKASGYTFTSYWMHWVRQAPGQCLEWMGNINPSSGATNYNEKFKSRVTLTVDKSTSTAYMELSSLRSEDTAVYYCARDRSSQYYFDYWGQGTTVTVSS
VL 2: DIVMTQSPDSLAVSLGERATINCKSSQSLLNSRSKKNYLAWYQQKPGQPPKLLIYWASTRESGVPDRFSGSGSGTDFTLTISSLQAEDVAVYYCTQSYTLRTFGCGTKVEIK
notes: as for B3
For B8, the binding result in test [1] and in test [2] was “binds” in each case.

B9: Bis-108+147-N31Y.L (bispecific antibody, V domains shown)
VH 1: EVQLVQSGAEVKKPGASVKVSCKASGYTFTSYVIHWVRQAPGQGLEWMGYFNPYNDGTKYNEEFKGRVTLTSDKSTSTAYMELRSLRSDDTAVYYCARGGVRRYFDVWGQGTTVTVSS
VL 1: DIQMTQSPSSLSASVGDRVTITCRASQDIGSNLNWLQQKPGKAIKRLIYATFGLDSGVPSRFSGSRSGTDFTLTISSLQPEDFATYYCQQYASFPYTFGGGTKVEIK
VH 2: EVQLVQSGAEVKKPGSSVKVSCKASGYTFTSYWMHWVRQAPGQCLEWMGNINPSSGATNYNEKFKSRVTLTVDKSTSTAYMELSSLRSEDTAVYYCARDRSSQYYFDYWGQGTTVTVSS
VL 2: DIVMTQSPDSLAVSLGERATINCKSSQSLLYSRSRKNYLAWYQQKPGQPPKLLIYWASTRESGVPDRFSGSGSGTDFTLTISSLQAEDVAVYYCTQSYTLRTFGCGTKVEIK
notes: as for B3
Regarding B9, the binding result in test [1] and in test [2] was “binds” each time.

B10: Bis-108+147-N37K.L (bispecific antibody, V domains shown)
VH 1: EVQLVQSGAEVKKPGASVKVSCKASGYTFTSYVIHWVRQAPGQGLEWMGYFNPYNDGTKYNEEFKGRVTLTSDKSTSTAYMELRSLRSDDTAVYYCARGGVRRYFDVWGQGTTVTVSS
VL 1: DIQMTQSPSSLSASVGDRVTITCRASQDIGSNLNWLQQKPGKAIKRLIYATFGLDSGVPSRFSGSRSGTDFTLTISSLQPEDFATYYCQQYASFPYTFGGGTKVEIK
VH 2: EVQLVQSGAEVKKPGSSVKVSCKASGYTFTSYWMHWVRQAPGQCLEWMGNINPSSGATNYNEKFKSRVTLTVDKSTSTAYMELSSLRSEDTAVYYCARDRSSQYYFDYWGQGTTVTVSS
VL 2: DIVMTQSPDSLAVSLGERATINCKSSQSLLNSRSRKKYLAWYQQKPGQPPKLLIYWASTRESGVPDRFSGSGSGTDFTLTISSLQAEDVAVYYCTQSYTLRTFGCGTKVEIK
notes: as for B3
Consider B10, for which the binding result in test [1] and in test [2] was “binds” each time.

B11: Bis-108+147-R35S.L (bispecific antibody, V domains shown)
VH 1: EVQLVQSGAEVKKPGASVKVSCKASGYTFTSYVIHWVRQAPGQGLEWMGYFNPYNDGTKYNEEFKGRVTLTSDKSTSTAYMELRSLRSDDTAVYYCARGGVRRYFDVWGQGTTVTVSS
VL 1: DIQMTQSPSSLSASVGDRVTITCRASQDIGSNLNWLQQKPGKAIKRLIYATFGLDSGVPSRFSGSRSGTDFTLTISSLQPEDFATYYCQQYASFPYTFGGGTKVEIK
VH 2: EVQLVQSGAEVKKPGSSVKVSCKASGYTFTSYWMHWVRQAPGQCLEWMGNINPSSGATNYNEKFKSRVTLTVDKSTSTAYMELSSLRSEDTAVYYCARDRSSQYYFDYWGQGTTVTVSS
VL 2: DIVMTQSPDSLAVSLGERATINCKSSQSLLNSRSSKNYLAWYQQKPGQPPKLLIYWASTRESGVPDRFSGSGSGTDFTLTISSLQAEDVAVYYCTQSYTLRTFGCGTKVEIK
notes: as for B3
Regarding B11, the binding result in test [1] and in test [2] was “binds” in each case.
